The source of these data is publication PMC10783506.

Data set [1] relates to LGP2 (insect-cell expressed) (Homo sapiens). As to the kind of experiment: fluorescence polarization. The note with it: Buffer A: 50 mM MOPS pH 7.4, 5 mM MgCl2, 5 mM DTT, 0.05 mM BSA, 0.01% Tween20, 0-100 mM NaCl (or KCl), with or without ATP, EMSA at 4 C, stopped-flow at 25 C …. (In general: In fluorescence polarisation assays a small probe gives low polarisation when free and higher when bound to something large.)

In data set [2] the test system is RIG-I. As to the kind of experiment: EMSA. The note with it: 60 nM protein, 20 nM RNA, monovalent streptavidin; mainly monomer; m7G cap and 2'-O-methyl on first nucleotide (Cap1); biotin at distal end; Buffer A: 50 mM MOPS pH 7.4, 5 mM MgCl2, 5 mM DTT, 0.05 mM BSA, 0.01% Tween20; 0-100 mM NaCl (or KCl), with or without ATP; EMSA at 4 C, stopped-flow at 25 C …. (In EMSA bound probe runs differently from free probe, usually more slowly.)

As a reminder, the Kd is the constant that tells how readily two partners part at equilibrium.

As to 3'-overhang HP RNA, in data set [1] (100 mM KCl), the binding signal (fold Kd vs 5'OH blunt HP) is 10.
The substance 5'OH blunt HP RNA had a Kd in data set [1] (5'OH) of 10 nM.
For the substance 5'ppp blunt HP RNA, the Kd in data set [1] (5'ppp) worked out at 10 nM. In other words, the double-digit nanomolar range.
As to Cap1 ds27 RNA-biotin, the binding signal in data set [2] is 50 % RNA bound.
Turning to ds16 DNA, the Kd in data set [1] (0 mM NaCl, ATP had little effect on Kd) was 200 nM.
Substance stem ds26 RNA had a Kd in data set [1] (0 mM NaCl, ATP without effect, 17 bp dsRNA flanked by 4 bp dsDNA ends) of 80 nM.
